Measured values as given in US20250236901A1, “METHOD OF DETECTING A MICROORGANISM HAVING HIPPURICASE ACTIVITY” (BIOSYNTH AG, priority 2022, published 2025).

Test system: Campylobacter jejuni DSM 4688
Test: Detection of hippuricase activity with 4-HHA, 4-aminoantipyrine and oxidizing reagent (color / absorbance at 505 nm)
Assay type: cell-based
Details: FIG. 7B; varied 0 to 4 U/mL; 10 mM 4-HHA; 0.5 mM 4-AAP, 4.5 U/mL HRP, 10 mM glucose
Description: Campylobacter jejuni DSM 4688 (C. j., catalase positive), Eschericha coli (E. coli, catalase positive) and Campylobacter coli DSM 4689 (C. c., catalase positive), Streptococcus agalactiae ATCC®12386 (S. a., catalase negative) and Streptococcus pyogenes ATCC®19615 (S. p., catalase negative) were cultivated on Columbia Agar with sheep blood (Thermofischer PB5039A) at 37° C. for 48 h, both Campylobacter strains were cultivated under microaerophilic atmosphere (Oxoid, Campylgen CN0025A).
Biomass of colonies were suspended in sterile phosphate buffer (100 mM, pH 7.4) and the optical density OD was determined and set to OD600 of 0.9.
Two hundred μL of cell suspensions were mixed with 25 μL of 4-hydroxyhippuric acid (4-HHA, Bachem, 4005059) stock solution, prepared in 100 mM phosphate buffer pH adjusted to 7.4 in a microtiter plate (SpektraMax M5, Molecular Devices) and incubated for 70 minutes at 37° C. […] The absorbance at 505 nm was recorded with a plate reader at room temperature. […]
Two hundred μL of cell suspensions were mixed with 25 μL of 100 mM 4-hydroxyhippuric acid (4-HHA, Bachem 4005059) prepared in 100 mM phosphate buffer pH adjusted to 7.4) in a microtiter plate and incubated for 1 h at 37° C. […] The absorbance at 505 nm was recorded with a plate reader (SpektraMax M5, Molecular Devices) at room temperature. […]

B1: GOD: glucose oxidase (GOD, Merck G2133), hydrogen peroxide-generating enzyme (protein, UniProt P13006 17-605, looked up)
Glucose oxidase: LPHYIRSNGIEASLLTDPKDVSGRTVDYIIAGGGLTGLTTAARLTENPNISVLVIESGSYESDRGPIIEDLNAYGDIFGSSVDHAYETVELATNNQTALIRSGNGLGGSTLVNGGTWTRPHKAQVDSWETVFGNEGWNWDNVAAYSLQAERARAPNAKQIAAGHYFNASCHGVNGTVHAGPRDTGDDYSPIVKALMSAVEDRGVPTKKDFGCGDPHGVSMFPNTLHEDQVRSDAAREWLLPNYQRPNLQVLTGQYVGKVLLSQNGTTPRAVGVEFGTHKGNTHNVYAKHEVLLAAGSAVSPTILEYSGIGMKSILEPLGIDTVVDLPVGLNLQDQTTATVRSRITSAGAGQGQAAWFATFNETFGDYSEKAHELLNTKLEQWAEEAVARGGFHNTTALLIQYENYRDWIVNHNVAYSELFLDTAGVASFDVWDLLPFTRGYVHILDKDPYLHHFAYDPQYFLNELDLLGQAAATQLARNISNSGAMQTYFAGETIPGDNLAYDADLSAWTEYIPYHFRPNYHGVGTCSMMPKEMGGVVDNAARVYGVQGLRVIDGSIPPTQMSSHVMTVFYAMALKISDAILEDYASMQ
- GOD enzyme activity sufficient for the reaction: 1 U/mL
